B1: ndk: E. coli ndk (nucleoside diphosphate kinase), complemented on plasmid (protein, listed as Escherichia coli)
chain: MAIERTFSIIKPNAVAKNVIGNIFARFEAAGFKIVGTKMLHLTVEQARGFYAEHDGKPFFDGLVEFMTSGPIVVSVLEGENAVQRHRDLLGATNPANALAGTLRADYADSLTENGTHGSDSVESAAREIAYFFGEGEVCPRTR
B2: ycjU: E. coli ycjU (β-phosphoglucomutase), complemented on plasmid (protein, listed as Escherichia coli)
chain: MKLQGVIFDLDGVITDTAHLHFQAWQQIAAEIGISIDAQFNESLKGISRDESLRRILQHGGKEGDFNSQERAQLAYRKNLLYVHSLRELTVNAVLPGIRSLLADLRAQQISVGLASVSLNAPTILAALELREFFTFCADASQLKNSKPDPEIFLAACAGLGVPPQACIGIEDAQAGIDAINASGMRSVGIGAGLTGAQLLLPSTESLTWPRLSAFWQNV
B3: ugpA: Bifidobacterium bifidum ugpA, complemented on plasmid (protein, listed as Bifidobacterium bifidum)
chain: MAFAEDLKRTEKMTVDDVFEQSAQKMREQGMSEIAISQFRHAYHVWASEKESAWIREDTVEPLHGVRSFHDVYKTIDHDKAVHAFAKTAFLKLNGGLGTSMGLQCAKSLLPVRRHKARQMRFLDIILGQVLTARTRLNVPLPVTFMNSFRTSDDTMKALRHQRKFKQTDIPLEIIQHQEPKIDAATGAPASWPANPDLEWCPPGHGDLFSTLRESGLLDTLLEHGFEYLFISNSDNLGARPSRTLAQYFEDTGAPFMVEVANRTYADRKGGHIVRDTATGRLILREMSQVHPDDKDAAQDIAKHPYFNTNNIWVRIDVLRDMLAEHDGVLPLPVIINNKTVDPIDPQSPAVVQLETAMGAAIGLFEGAICVQVDRMRFLPVKTTNDLFIMRSDRFHLTDSYEMEDGNYIFPNVDLDPRYYKNIEDFNERFPYNVPSLAAANSVSIKGDWTFGRDVIMFADARLEDRNEPSYVPNGEYVGPMGIEPGDWV
B4: pgm-galU: pgm and galU (SEQ ID NOS: 92 and 93) complemented together on plasmid (protein, listed as Escherichia coli)
chain 1: MAIHNRAGQPAQQSDLINVAQLTAQYYVLKPEAGNAEHAVKFGTSGHRGSAARHSFNEPHILAIAQAIAEERAKNGITGPCYVGKDTHALSEPAFISVLEVLAANGVDVIVQENNGFTPTPAVSNAILVHNKKGGPLADGIVITPSHNPPEDGGIKYNPPNGGPADTNVTKVVEDRANALLADGLKGVKRISLDEAMASGHVKEQDLVQPFVEGLADIVDMAAIQKAGLTLGVDPLGGSGIEYWKRIGEYYNLNLTIVNDQVDQTFRFMHLDKDGAIRMDCSSECAMAGLLALRDKFDLAFANDPDYDRHGIVTPAGLMNPNHYLAVAINYLFQHRPQWGKDVAVGKTLVSSAMIDRVVNDLGRKLVEVPVGFKWFVDGLFDGSFGFGGEESAGASFLRFDGTPWSTDKDGIIMCLLAAEITAVTGKNPQEHYNELAKRFGAPSYNRLQAAATSAQKAALSKLSPEMVSASTLAGDPITARLTAAPGNGASIGGLKVMTDNGWFAARPSGTEDAYKIYCESFLGEEHRKQIEKEAVEIVSEVLKNA
chain 2: MAAINTKVKKAVIPVAGLGTRMLPATKAIPKEMLPLVDKPLIQYVVNECIAAGITEIVLVTHSSKNSIENHFDTSFELEAMLEKRVKRQLLDEVQSICPPHVTIMQVRQGLAKGLGHAVLCAHPVVGDEPVAVILPDVILDEYESDLSQDNLAEMIRRFDETGHSQIMVEPVADVTAYGVVDCKGVELAPGESVPMVGVVEKPKADVAPSNLAIVGRYVLSADIWPLLAKTPPGAGDEIQLTDAIDMLIEKETVEAYHMKGKSHDCGNKLGYMQAFVEYGIRHNTLGTEFKAWLEEEMGIKK
B5: cmk: E. coli cmk (cytidylate kinase), complemented on plasmid (protein, listed as Escherichia coli)
chain: MTAIAPVITIDGPSGAGKGTLCKAMAEALQWHLLDSGAIYRVLALAALHHHVDVASEDALVPLASHLDVRFVSTNGNLEVILEGEDVSGEIRTQEVANAASQVAAFPRVREALLRRQRAFRELPGLIADGRDMGTVVFPDAPVKIFLDASSEERAHRRMLQLQEKGFSVNFERLLAEIKERDDRDRNRAVAPLVPAADALVLDSTTLSIEQVIEKALQYARQKLALA

Tests used:
steviol glycoside [1] = assay: steviol glycoside bioconversion with complemented sucrose synthases in chassis strain; type: cell-based, E. coli; settings: chassis strain with UGT SEQ ID NOS: 15 and 25, stevia leaf extract, glucose fed, 37° C., 48 hr, FIG. 3
Source text: Strains were created that expressed candidate sucrose synthase enzymes, which may improve UDP-glucose availability when fed sucrose. Expression of a sucrose synthase enables splitting of sucrose into fructose and glucose. Glucose can be funneled towards UDP-glucose biosynthesis. […] Genes were complemented on plasmid. Fold improvement is with respect to total steviol glycoside conversion. Stevia leaf extract, sucrose, and glucose were fed to the bioconversion strains. Bioconversion took place at 37° C. for 48 hr. Data were quantified by reverse phase LC DAD to quantify conversion of steviol glycosides.

steviol glycoside [2] = assay: steviol glycoside bioconversion with overexpressed genes complemented on plasmid; type: cell-based, E. coli; settings: chassis strain with UGT SEQ ID NOS: 14 and 24; stevia leaf extract and glucose fed; 37° C., 48 hr; FIG. 2
Method: Other bacterial genes were overexpressed, and bioconversion tested as compared to the chassis strain expressing UGT enzymes of SEQ ID NOS: 14 and 24. […] Fold improvement is with respect to total steviol glycoside conversion. Stevia leaf extract and glucose were fed to the bioconversion strains. Bioconversion took place at 37° C. for 48 hr. Data were quantified by reverse phase LC DAD to quantify conversion of steviol glycosides.

Molecule | improvement of total steviol glycoside conversion by sucrose synthase (steviol glycoside [1]) | improvement of total steviol glycoside conversion by gene complementation (steviol glycoside [2])
SEQ ID NO: 2: sucrose synthase, Solanum tuberosum (StSus2) | dramatic improvements in glycosylation | 
SEQ ID NO: 3: sucrose synthase, Solanum tuberosum (StSus2_S11E) | dramatic improvements in glycosylation | 
SEQ ID NO: 6: sucrose synthase, Arabidopsis thaliana (AtSus1) | dramatic improvements in glycosylation | 
SEQ ID NO: 7: sucrose synthase, Arabidopsis thaliana (AtSus3) | dramatic improvements in glycosylation | 
SEQ ID NO: 8: sucrose synthase, Vigna radiate (VrSS1) | dramatic improvements in glycosylation | 
SEQ ID NO: 9: sucrose synthase, Vigna radiate (VrSS1_S11E) | dramatic improvements in glycosylation | 
SEQ ID NO: 10: sucrose synthase, Glycine Max (GmSS) | dramatic improvements in glycosylation | 
SEQ ID NO: 11: sucrose synthase, Glycine Max (GmSS_S11E) | dramatic improvements in glycosylation | 
B1 |  | improved overall glycosylation
B2 |  | improved overall glycosylation
B3 |  | improved overall glycosylation
B4 |  | improved overall glycosylation
B5 |  | improved overall glycosylation

— patent US20260242839A1, “GLYCOSIDE PRODUCT BIOSYNTHESIS AND RECOVERY” (Manus Bio Inc., priority 2023, published 2026)
